# Target: T1, protein tyrosine kinase 7 (PTK-7) on HCT-116 cells (UniProt Q13308)
# T1 sequence: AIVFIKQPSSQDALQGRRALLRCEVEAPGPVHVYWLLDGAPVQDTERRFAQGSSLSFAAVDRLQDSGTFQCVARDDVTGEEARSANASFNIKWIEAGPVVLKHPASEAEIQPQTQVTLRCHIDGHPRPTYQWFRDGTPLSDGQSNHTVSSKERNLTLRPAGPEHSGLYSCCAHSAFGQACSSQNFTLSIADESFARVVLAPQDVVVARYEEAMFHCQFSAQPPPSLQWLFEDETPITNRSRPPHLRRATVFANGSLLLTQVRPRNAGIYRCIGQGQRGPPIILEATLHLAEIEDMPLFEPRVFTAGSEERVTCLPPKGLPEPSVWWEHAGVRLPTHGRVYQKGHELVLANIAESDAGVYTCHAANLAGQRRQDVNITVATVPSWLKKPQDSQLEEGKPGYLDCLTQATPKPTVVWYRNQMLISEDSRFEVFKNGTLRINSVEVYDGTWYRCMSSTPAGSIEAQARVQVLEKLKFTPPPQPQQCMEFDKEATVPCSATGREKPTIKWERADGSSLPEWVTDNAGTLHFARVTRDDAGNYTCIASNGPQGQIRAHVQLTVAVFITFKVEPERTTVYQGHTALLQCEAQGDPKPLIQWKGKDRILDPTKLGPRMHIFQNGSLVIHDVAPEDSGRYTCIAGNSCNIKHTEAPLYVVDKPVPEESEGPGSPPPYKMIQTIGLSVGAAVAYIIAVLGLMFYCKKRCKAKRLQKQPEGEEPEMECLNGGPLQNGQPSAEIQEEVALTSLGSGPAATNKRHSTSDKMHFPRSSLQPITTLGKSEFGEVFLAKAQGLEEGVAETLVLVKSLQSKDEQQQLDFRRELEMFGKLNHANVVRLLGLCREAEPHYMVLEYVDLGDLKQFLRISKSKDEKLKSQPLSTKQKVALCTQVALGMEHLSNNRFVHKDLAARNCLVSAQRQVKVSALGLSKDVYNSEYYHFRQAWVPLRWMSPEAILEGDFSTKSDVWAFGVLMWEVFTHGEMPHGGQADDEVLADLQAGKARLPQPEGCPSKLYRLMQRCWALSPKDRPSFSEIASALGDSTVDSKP
# Experiment: flow cytometry, cell binding
# Conditions: 5 mM Mg2+, Whole cells washed in D-PBS with 4.5 g/L glucose and 5 mM MgCl2, 300,000 cells in 200 ul binding buffer (composition and pH not stated), on ice 30 min …
Sequence,Kd (5' amino coupled to p-SCN-Bn-NOTA) [nM],Kd [nM]
ATCTAACTGCTGCGCCGCCGGGAAAATACTGTACGGTTAGA [NOTA-SGC8],3.49,
ATCTAACTGCTGCGCCGCCGGGAAAATACTGTACGGTTAGA [SGC8],,1.88
